From article PMC7505656

What was measured:
[1] = biological target: E-cadherin extracellular domain L175D cis-binding mutant, hexahistidine-tagged (human) (UniProt P12830); assay: FRET or BRET; single-molecule intermolecular FRET by TIRF microscopy; high-coverage mutant (~1,300 E-cad/µm^2; 5 × 10^-7 M total in solution); AF555 labelled wild-type donor with AF647 labelled mutant acceptor and unlabelled mutant, tethered by His6 to a DOPC/DGS-NTA(Ni) supported lipid bilayer; same buffer, pH 8; three-state Markov model
[2] = biological target: wild-type E-cadherin extracellular domain, hexahistidine-tagged (human) (UniProt P12830); assay: FRET or BRET; single-molecule intermolecular FRET by TIRF microscopy; high-coverage wild-type (~1,400 E-cad/µm^2; 5 × 10^-7 M total in solution); AF555 donor, AF647 acceptor and unlabelled E-cad tethered by His6 to a DOPC/DGS-NTA(Ni) 19:1 supported lipid bilayer; 25 mM HEPES, 100 mM NaCl, 10 mM KCl, 2 mM CaCl2, 0.05 mM NiSO4, pH 8; average dissociation rate constant from a three-state Markov model
[3] = biological target: wild-type E-cadherin extracellular domain, hexahistidine-tagged (human) (UniProt P12830); assay: single-molecule tracking (TIRFM), cluster size from trajectory friction factors; AF555 labelled E-cad on DOPC supported lipid bilayers with 5% DGS-NTA(Ni); high, intermediate and low surface coverage (~39,000, ~1,000, ~0.6 E-cad/µm^2); raw friction factor data adapted from Thompson et al., 2019 and analysed here
[4] = biological target: wild-type E-cadherin extracellular domain, hexahistidine-tagged (human) (UniProt P12830); assay: single-molecule tracking cluster size distributions + kinetic Monte Carlo simulation; effective rate constants worked out from kMC on/off rates that were optimised so that simulated cluster size distributions match the experimental ones (1,250 E-cad/µm^2 in the simulation)
[5] = biological target: wild-type E-cadherin extracellular domain, hexahistidine-tagged (human) (UniProt P12830); assay: FRET or BRET; single-molecule intermolecular FRET by TIRF microscopy; intermediate-coverage wild-type (~1,000 E-cad/µm^2; 3 × 10^-7 M total in solution); AF555 donor, AF647 acceptor and unlabelled E-cad tethered by His6 to a DOPC/DGS-NTA(Ni) supported lipid bilayer; same buffer, pH 8; three-state Markov model
[6] = biological target: E-cadherin extracellular domain L175D cis-binding mutant, hexahistidine-tagged (human) (UniProt P12830); assay: single-molecule tracking (TIRFM), cluster size from trajectory friction factors; AF555 labelled E-cad on DOPC supported lipid bilayers with 5% DGS-NTA(Ni); high, intermediate and low surface coverage (~39,000, ~1,000, ~0.6 E-cad/µm^2); raw friction factor data adapted from Thompson et al., 2019 and analysed here
[7] = biological target: E-cadherin extracellular domain L175D cis-binding mutant, hexahistidine-tagged (human) (UniProt P12830); assay: single-molecule tracking cluster size distributions + kinetic Monte Carlo simulation; effective rate constants worked out from kMC on/off rates that were optimised so that simulated cluster size distributions match the experimental ones (1,250 E-cad/µm^2 in the simulation)

Row | Substance | koff [1] | koff [2] | characteristic cluster size [3] | cluster size (E-cad per cluster) [3] | binding affinity, specific cis-interaction [4] | effective koff, specific cis-interaction [4] | effective kon, specific cis-interaction [4] | koff [5] | characteristic cluster size [6] | cluster size (E-cad per cluster) [6] | effective koff, nonspecific cis-interaction [7] | effective kon, nonspecific cis-interaction [7]
1 | wild-type E-cadherin extracellular domain, hexahistidine-tagged (from UniProt P12830 155-709) (domain or fragment) | 1.4 s⁻¹ | 1.04 s⁻¹ | 33 E-cad | 40 to 160 E-cad | 10 µM | 100 s⁻¹ | 2.7e+06 M⁻¹ s⁻¹ | 3.17 s⁻¹ | – | – | – | –
2 | E-cadherin extracellular domain L175D cis-binding mutant, hexahistidine-tagged (from UniProt P12830 155-709) (domain or fragment) | – | – | – | – | – | – | – | – | 29 E-cad | 40 E-cad | 1000 s⁻¹ | 1.1e+06 M⁻¹ s⁻¹
